Source: patent US20220403022A1 (Merck KGaA, published 2022)
Changes are numbered by the printed parent chain. Where “and” joins values, the source holds several entries; their conditions need not be identical. Identical values can stand only once.

T1: CD226 (UniProt Q15762 19-247, limits assumed)
T1 construct: also called related family member protein CD226
T1 sequence (looked up): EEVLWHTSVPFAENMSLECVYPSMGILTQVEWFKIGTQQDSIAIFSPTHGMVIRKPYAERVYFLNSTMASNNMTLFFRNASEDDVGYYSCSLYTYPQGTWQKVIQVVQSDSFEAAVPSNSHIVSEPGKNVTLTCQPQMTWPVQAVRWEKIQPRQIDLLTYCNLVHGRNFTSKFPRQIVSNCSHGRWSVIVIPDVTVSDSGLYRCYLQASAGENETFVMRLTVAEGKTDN

T2: human TIGIT ECD expressed on the CHO-S cell surface (human, UniProt Q495A1 22-141)
T2 construct: sections 3.13 and 4.1 say only stably expressing human TIGIT; also called CHO-S-hTIGIT; CHO-S-huTIGIT
T2 sequence: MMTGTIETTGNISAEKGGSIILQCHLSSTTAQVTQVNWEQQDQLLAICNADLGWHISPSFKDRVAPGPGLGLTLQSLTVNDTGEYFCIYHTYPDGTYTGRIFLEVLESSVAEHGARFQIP

T3: His-tagged human TIGIT (human, UniProt Q495A1 22-141)
T3 construct: soluble analyte in SPR
T3 sequence: T2 sequence

T4: human TIGIT on cells (primary T cells, transfected HEK293 cells, Jurkat reporter cells, NK cells) (human, UniProt Q495A1 22-244)
T4 sequence: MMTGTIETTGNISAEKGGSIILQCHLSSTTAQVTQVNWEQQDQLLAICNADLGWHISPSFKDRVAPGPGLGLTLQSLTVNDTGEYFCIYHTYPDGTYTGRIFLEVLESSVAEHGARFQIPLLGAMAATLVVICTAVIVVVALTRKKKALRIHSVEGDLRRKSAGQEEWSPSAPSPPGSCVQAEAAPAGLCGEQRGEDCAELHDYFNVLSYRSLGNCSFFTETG

B1: 3963H03 (antibody, human IgG1, kappa, V domains shown)
VH: EIQLVQSGSELKKPGASVKVSCKASGYTFTSYPMNWVRQAPGQGLEWMGWINTNTGNPTYAQGFTGRFVFSLDTSVSTAYLQISSLKAEDTAVYYCARVGGYSVDEYAFDVWGQGTMVTVSS
VL: AIRLTQSPSFLSASVGDRVTITCRASQGISSYLAWYQQKPGKAPKLLIYAASTLQSGVPSRFSGSGSGTEFTLTISSLQPEDFATYYCQQLNSYPTFGGGTKVEIKR
notes: fully human IgG1 kappa, B-cell cloning hit from OmniRat; also called 3963H03 VH; 3963H03 VK
B2: 3964A06 (antibody, human IgG1, V domains shown)
VH: B1 VH with I2V, S31A, D105Y, E106D, V111I
VL: DIQLTQSPSFLSASVGDRVTITCRASQGISSYLAWYQQKPGKAPKLLIYAASTLQSGVPSRFSGSGSGTEFTLTISSLQPEDFATYYCQQLNSYPTFGGGTKVEIK
B3: 7729G05 (antibody, V domains shown)
VH: B1 VH with E1Q, I2V, Y102F, S103T, D105P, V111I, M117T
VL: B2 VL with Q3R, Q89G, L91V, N92M, S93R, T96A
notes: constant regions correspond to those of H03-12
B4: 7728B03 (antibody, V domains shown)
VH: B1 VH with E1Q, I2M, V99T, A108S, V111I, M117T
VL: B2 VL with Q89H, L91T, N92I, S93F, Y94R
notes: as for B3
B5: 3966C11 (antibody, human IgG1, V domains shown)
VH: B1 VH with Y60N, S103G, V104G, D105Y, E106D, V111I
VL: B2 VL with V103L
notes: constant regions correspond to those of H03-12 (human IgG1, kappa)
B6: 3963H03-12-muIgG2c (antibody, V domains shown)
VH: B1 VH with E1Q, I2V, M117L
VL: B2 VL with N92S
notes: also called version of 3963H03-12 with a murine immunoglobulin
B7: 3965D08 (antibody, human IgG1, V domains shown)
VH: EVQLVQSGSELKKPGASVKVSCKASGYTFTSYPMNWVRQAPGQGLEWMGWINTNTGNPTYAQGFTGRFVFSLDTSVSTAYLQISSLKAEDTAVYYCARTGYSGSYYWFDPWGQGTLVTVSS
VL: B2 VL with Q3R, L46F, P95L, G99Q, K102R, V103L
notes: as for B5

Legend:
CD226 = target: T1, CD226; test: ELISA EC50 assay
PD-L1 = target: T5, PD-L1 (UniProt Q9NZQ7 19-238, limits assumed); test: ELISA EC50 assay
T5 construct: also called unrelated protein PD-L1

[1] = target: T2, human TIGIT ECD expressed on the CHO-S …; test: flow cytometry on CHO-S cells expressing human TIGIT ECD
[2] = target: T2, human TIGIT ECD expressed on the CHO-S …; test: cell-based or functional assay
[3] = target: T6, His-tagged cynomolgus monkey TIGIT (cynomolgus monkey, UniProt A0A7N9I9V4 89-209); test: SPR Biacore, antibody captured on anti-human Fc, His-tagged TIGIT injected
T6 construct: also called Cyno TIGIT; cynomolgus monkey TIGIT (Novoprotein cat. No. CP02)
Description: (§1) Binding affinities of anti-TIGIT hit candidate antibodies to human TIGIT and cynomolgus monkey TIGIT were measured by Surface Plasmon Resonance (SPR) using a GE Healthcare Biacore 4000 instrument and a GE Healthcare Biacore T200 instrument as follows. […] Antibodies were then captured on the CM5 biosensor chip to achieve approximately 200 response units (RU). Binding measurements were performed using the running HBS-EP+ buffer. 2-fold dilution series with starting concentration between 100 nM and 10 nM of His-tagged human and cynomolgus monkey (cyno) TIGIT proteins were injected at a flow rate of 30 μl/min at 25° C. Association rates (kon, M-1 s-1) and dissociation rates (koff, s-1) were calculated using a simple 1:1 Langmuir binding model (Biacore Evaluation Software). The equilibrium dissociation constant (KD, M) was calculated as the ratio of koff/kon.

His-tagged human TIGIT [4] = target: T3, His-tagged human TIGIT; test: as above
Description: as §1

[5] = target: T7, cynomolgus monkey TIGIT ECD expressed on the CHO-S cell surface (cynomolgus monkey); test: flow cytometry on CHO-S cells expressing cyno TIGIT ECD
T7 construct: extracellular domain; also called CHO-S-cynoTIGIT

His-tagged human TIGIT [6] = target: T3, His-tagged human TIGIT; test: SPR, IgG captured on anti-human Fc, His-tagged human TIGIT injected
Description: (§2) Antibodies were then captured on the CM5 biosensor chip. Binding measurements were performed using the running HBS-EP+ buffer. Two-fold dilution series of his-tagged human TIGIT, with starting concentrations between 100 nM and 10 nM, were injected at a flow rate of 30 μl/min at 25° C. Dissociation rates (koff, s-1) were calculated using a simple 1:1 Langmuir binding model (Biacore Evaluation Software).

[7] = target: T4, human TIGIT on cells (primary T cells, …); test: cell-based or functional assay
His-tagged human TIGIT [8] = target: T3, His-tagged human TIGIT; test: SPR, IgG captured on anti-human Fc, His-tagged human TIGIT injected; remark: listed apart in the source
Description: as §2

[9] = target: T2, human TIGIT ECD expressed on the CHO-S …; test: flow cytometry on CHO-S cells expressing human TIGIT ECD; remark: listed apart in the source
[10] = target: T7, cynomolgus monkey TIGIT ECD expressed …; test: flow cytometry on CHO-S cells expressing cynomolgus monkey TIGIT ECD
[11] = target: T2, human TIGIT ECD expressed on the CHO-S …; test: flow cytometry blocking assay on CHO-S-hTIGIT cells, competitor muCD112; competitor muCD112; muIgG2c version
[12] = target: T2, human TIGIT ECD expressed on the CHO-S …; test: flow cytometry blocking assay on CHO-S-hTIGIT cells, competitor muCD155-Fc; competitor muCD155-Fc; muIgG2c version

T5 sequence (Q9NZQ7 19-238 limits assumed): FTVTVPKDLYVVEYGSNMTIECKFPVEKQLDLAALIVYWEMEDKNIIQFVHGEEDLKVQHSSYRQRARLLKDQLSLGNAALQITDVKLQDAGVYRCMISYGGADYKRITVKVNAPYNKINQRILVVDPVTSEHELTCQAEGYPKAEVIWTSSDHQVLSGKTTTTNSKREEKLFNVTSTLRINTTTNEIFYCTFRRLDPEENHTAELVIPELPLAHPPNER
T6 sequence (A0A7N9I9V4 entry or part of it): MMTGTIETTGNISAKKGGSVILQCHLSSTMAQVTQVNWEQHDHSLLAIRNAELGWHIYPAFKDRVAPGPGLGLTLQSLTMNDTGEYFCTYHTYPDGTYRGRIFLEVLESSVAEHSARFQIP

Binder | binding result (CD226) | binding result (PD-L1) | EC50 [1] | ADCC EC50, nM (Donor 1005-4464) [2] | ADCC EC50, nM (Donor 1102-7215) [2] | ADCC EC50, nM (Donor 1106-0557) [2] | Kd [3] | koff [3] | kon [3] | Kd (His-tagged human TIGIT [4]) | koff (His-tagged human TIGIT [4]) | kon (His-tagged human TIGIT [4]) | EC50 [5] | koff (His-tagged human TIGIT [6]) | EC50 [7] | koff (His-tagged human TIGIT [8]) | EC50 (read off the curve) [9] | EC50 (read off the curve) [10] | IC50 [11] | IC50 [12]
B1 | no binding | no binding | 4.7 nM | 0.028 nM | 0.069 nM | 0.08 nM | 1.45 nM and 1.5 nM | 0.000213 s⁻¹ | 147000 M⁻¹ s⁻¹ | 3.37 nM and 3.4 nM | 0.000407 s⁻¹ | 121000 M⁻¹ s⁻¹ | 3.6 nM | 0.00063 s⁻¹ | 6.3 µg/mL | 0.00063 s⁻¹ |  |  |  | 
B2 | no binding | no binding |  |  |  |  | 1.11 nM and 1.1 nM | 0.000122 s⁻¹ | 109000 M⁻¹ s⁻¹ | 2.62 nM and 2.6 nM | 0.000233 s⁻¹ | 89100 M⁻¹ s⁻¹ |  |  |  |  | ~9 nM | ~8 nM |  | 
B3 |  |  |  |  |  |  | 0.0211 nM and < 0.05 nM | 1.23e-05 s⁻¹ | 581000 M⁻¹ s⁻¹ | 0.0173 nM and < 0.05 nM | 1.33e-05 s⁻¹ | 767000 M⁻¹ s⁻¹ |  |  |  |  |  |  |  | 
B4 |  |  |  |  |  |  | 0.0519 nM and 0.05 nM | 1.57e-05 s⁻¹ | 303000 M⁻¹ s⁻¹ | 0.0661 nM and 0.07 nM | 2.15e-05 s⁻¹ | 325000 M⁻¹ s⁻¹ |  |  |  |  |  |  |  | 
B5 | no binding | no binding |  |  |  |  | 1.41 nM and 1.4 nM | 0.000167 s⁻¹ | 118000 M⁻¹ s⁻¹ | 2.53 nM and 2.5 nM | 0.000274 s⁻¹ | 108000 M⁻¹ s⁻¹ |  |  |  |  | ~9 nM | ~7 nM |  | 
B6 |  |  |  |  |  |  |  |  |  |  |  |  |  |  |  |  |  |  | 1.19 µg/mL | 0.291 µg/mL
B7 | no binding | no binding |  |  |  |  | 8.66 nM and 8.7 nM | 0.00565 s⁻¹ | 653000 M⁻¹ s⁻¹ | 10.3 nM | 0.00497 s⁻¹ | 482000 M⁻¹ s⁻¹ |  |  |  |  | ~5 nM | ~3 nM |  | 
